In US20230272099A1 (Chugai, published 2023):
Residue numbers refer to the chain shown, from its start.

B1: dBBAT091-P253 (antibody, human IgG1, lambda, V domains shown)
VH: EVQLVESGGDLVKPGGGLRLSCAASGFTFSSYTMNWVRQAPGKGLEWVSSISSRSNYIDYADSVKGRFTISRDNAKNSLYLQMNSLRAEDTAVYYCARFGKKNDMNWVFDYWGQGTLVTVSS
VL: QSALTQPPSASGSPGQTVTISCTGTSTDVGFYNYVSWYQQHPGKAPKLMIYEGSKRPSGVPDRFSGSKSGNTASLTVSGLQAEDEADYFCSSYEYTESVLFGGGTKLTVLG
B2: dBBAT119-P253 (antibody, human IgG1, lambda, V domains shown)
VH: B1 VH with S31T, Y32F, I58K, D59S, F99Y, K101A, D104F
VL: B1 VL with E52Y, G53T, E94R, T96D, E97H, S98Q, L100S
notes: also called dBBAT119H-P253/dBBAT119L-LamLib
B3: dBBAT021-P253 (antibody, human IgG1, lambda, V domains shown)
VH: B1 VH with I58R, F99Y, K101G, D104I, M105L
VL: B1 VL with T27S, G53V, E94S, Y95S, T96D, E97T, S98H, L100G
B4: dBBAT015-P253 (antibody, human IgG1, lambda, V domains shown)
VH: B1 VH with S31T, N56T, I58A, D59T, F99Y, K101L, D104S, M105L
VL: B1 VL with G53V, R56K, S92T, E94S, T96D, L100A
B5: dBBAT007-P253 (antibody, human IgG1, lambda, V domains shown)
VH: B1 VH with S31G, I58A, D59H, K101L, D104F
VL: B1 VL with T27S, E52G, G53T, E94A, T96D, E97A, S98Q, V99L, L100V
B6: dBBAT112-P253 (antibody, human IgG1, lambda, V domains shown)
VH: B1 VH with S31T, I58K, D59F, K101V, D104N
VL: B1 VL with T27S, G53V, T96I
B7: dBBAT037-P253 (antibody, human IgG1, lambda, V domains shown)
VH: B1 VH with S31G, K101L, D104S, M105L
VL: B1 VL with G53T, E94S, Y95G, T96A, E97S, S98I, V99L
B8: dBBAT134-P253 (antibody, human IgG1, lambda, V domains shown)
VH: B1 VH with I58A, F99Y, K101A, D104E
VL: B1 VL with G53V, E94T, T96D, E97Q, S98Q, V99L, L100M
B9: dBBAT122-P253 (antibody, human IgG1, lambda, V domains shown)
VH: B1 VH with S31T, I58K, D59F, K101G, D104N
VL: B1 VL with T27S, G53V, T96I
B10: dBBAT042-P253 (antibody, human IgG1, lambda, V domains shown)
VH: B1 VH with Y32H, V48I, I58K, D59S, F99Y, K101H, D104M, M105H
VL: B1 VL with T27S, G53V, S92T, E94R, T96D, E97Q, S98N, L100A

target: T1, biotinylated Fc-fused monkey CD137 (monkey, biotin on the AviTag); assay: ELISA, 1 mM ADP, 0.625 ug/mL; set-up: reference not given here
T1 construct: also called cyCD137-Fc-BAP
T1 sequence (chain, as listed by the source limits assumed): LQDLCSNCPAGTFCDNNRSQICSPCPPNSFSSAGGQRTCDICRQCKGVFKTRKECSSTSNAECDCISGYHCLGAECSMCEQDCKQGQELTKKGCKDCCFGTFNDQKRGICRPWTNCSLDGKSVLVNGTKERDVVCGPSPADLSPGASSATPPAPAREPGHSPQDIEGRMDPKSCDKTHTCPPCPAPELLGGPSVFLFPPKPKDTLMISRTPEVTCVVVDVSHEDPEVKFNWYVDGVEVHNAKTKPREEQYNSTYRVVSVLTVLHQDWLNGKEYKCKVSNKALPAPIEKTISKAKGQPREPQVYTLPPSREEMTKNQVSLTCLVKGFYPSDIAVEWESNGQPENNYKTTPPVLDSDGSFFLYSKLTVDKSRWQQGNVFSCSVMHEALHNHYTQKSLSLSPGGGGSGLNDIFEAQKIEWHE
Experimental: (§1) The obtained antibodies were evaluated for binding to monkey CD137 by ELISA. The cyCD137-Fc-BAP prepared in Reference Example 1 was immobilized on Streptawell microtiter plates. After the unbound antigen was removed from the plates by washing each well of the plates with the wash buffer, the wells were blocked with 150 μL of a blocking buffer (TBS with 2% BSA) for 1 hour or more. The blocking buffer was removed from each well, and 100 μL of the purified antibodies diluted in TBS with a final concentration of 1 mM ADP, or TBS with a final concentration 1 mM ADP was added to each well. The plate to which the antibody was added was shaken at 600 rpm for 1 hour. The AP-conjugated anti-human lambda antibodies (BETHYL) diluted in TBS with a final concentration of 1 mM ADP were added to each well after washing with a wash buffer (TBS with 0.1% Tween20) containing a final concentration of 1 mM ADP. After incubation for one hour and washing with a wash buffer containing a final concentration of 1 mM […], BluePhos phosphate substrate (KPL) was added. Color development was measured by absorbance at 600 nm. Samples with a concentration-dependent increase in the absorbance ratio can be said to be bound to monkey CD137.

Row | Binder | absorbance ratio
1 | B1 | 1.7
2 | B2 | 57.2
3 | B3 | 4.6
4 | B4 | 14.4
5 | B5 | 29.2
6 | B6 | 2.8
7 | B7 | 4.6
8 | B8 | 5.8
9 | B9 | 5.7

target: T2, hCD137 (FXa digested) (human, UniProt Q07011 24-186); assay: SPR, 100 uM ATP
T2 construct: Factor Xa digestion and Protein A removed the Fc; also called human CD137 extracellular domain
T2 sequence (Q07011 other isoform, or with tags, fused parts or gaps limits assumed): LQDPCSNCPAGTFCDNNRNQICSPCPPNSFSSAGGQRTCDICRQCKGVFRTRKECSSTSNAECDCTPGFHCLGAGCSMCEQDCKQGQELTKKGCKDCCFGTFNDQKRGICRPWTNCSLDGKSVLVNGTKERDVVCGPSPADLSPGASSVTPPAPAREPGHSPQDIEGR
Experimental: (§2) Biacore T200 (GE Healthcare) was used to analyze the interaction of antigen-antibody reaction between the anti-CD137 antibodies and hCD137 (FXa digest). […] For the running buffer, 20 mM ACES, 150 mM NaCl, 2 mM MgCl₂, 0.05% Tween20 (pH 7.4) was used, and 10 mM Glycine-HCl (pH 1.5) was used as the regeneration solution.
(§3) After capturing of the anti-CD137 antibodies suspended in TBS, 500 nM hCD137 (FXa digest) was injected into each flow cell at a flow rate of 10 μL/min for three minutes. This three-minute period served as the binding phase for hCD137 (FXa digest), and after the binding phase ended, the two-minute period of switching to the running buffer served as the dissociation phase for hCD137 (FXa digest). After completion of the dissociation phase, the regenerative solution was injected at a flow rate of 30 μl/min for 30 seconds. The above was the cycle for measuring the binding activity of anti-CD137 antibodies. The binding amount of hCD137 (FXa digest) that interacted with the anti-CD137 antibody in the binding phase was adjusted by the amount of antibody captured. Biacore T200 Evaluation Software Version 2.0 was used to display the binding amount (RU) per capture ligand 1 RU, and values of the antibody capture amount (amount of antibody captured) and antigen-binding amount were obtained. Since the binding amount of antigen reflects the binding activity, it can be said that dependence on a small molecule is recognized when the value in the presence of the small molecule (ATP, ADP or AMP) is higher than the value without the small molecule. In particular, the larger the difference is, the higher the dependence is on a small molecule.

Row | Binder | binding amount [RU]
10 | B1 | 3
11 | B2 | 12.9
12 | B3 | 2.4
13 | B10 | 4.3
14 | B6 | 6.3
15 | B7 | 15.9
16 | B9 | 4.7

target: T1, biotinylated Fc-fused monkey CD137; assay: ELISA, 1 mM ADP, 0.156 ug/mL; set-up: reference not given here
Experimental: as §1

Row | Binder | absorbance ratio
17 | B1 | 0.7
18 | B2 | 47.7
19 | B3 | 1.7
20 | B4 | 3.6
21 | B5 | 22
22 | B6 | 1
23 | B7 | 1.9
24 | B8 | 2.2
25 | B9 | 1.9

target: T2, hCD137 (FXa digested); assay: SPR, 100 uM AMP
Experimental: as §2, §3

Row | Binder | binding amount [RU]
26 | B1 | 3.3
27 | B2 | 26.9
28 | B3 | 3
29 | B10 | 4.7
30 | B6 | 4.8
31 | B7 | 13.8
32 | B9 | 4.1

target: T1, biotinylated Fc-fused monkey CD137; assay: ELISA, 1 mM ADP, 0.010 ug/mL; set-up: reference not given here
Experimental: as §1

Row | Binder | absorbance ratio
33 | B1 | 0.6
34 | B2 | 10.2
35 | B3 | 0.9
36 | B4 | 1.1
37 | B5 | 3.8
38 | B6 | 0.6
39 | B7 | 1.1
40 | B8 | 1
41 | B9 | 0.9

target: T1, biotinylated Fc-fused monkey CD137; assay: ELISA, 1 mM ADP, 10 ug/mL; set-up: reference not given here
Experimental: as §1

Row | Binder | absorbance ratio
42 | B1 | 15.1
43 | B2 | 55.3
44 | B3 | 40.5
45 | B4 | 42.9
46 | B5 | 30.5
47 | B6 | 19.8
48 | B7 | 32.5
49 | B8 | 33.9
50 | B9 | 31.9

target: T2, hCD137 (FXa digested); assay: SPR, 1 mM ATP
Experimental: as §2, §3

Row | Binder | binding amount [RU]
51 | B1 | 6.2
52 | B2 | 45.7
53 | B3 | 9.2
54 | B10 | 11.7
55 | B6 | 12.6
56 | B7 | 27.5
57 | B9 | 11.5

target: T2, hCD137 (FXa digested); assay: SPR, 10 uM ADP
Experimental: as §2, §3

Row | Binder | binding amount [RU]
58 | B1 | 20
59 | B2 | 67.2
60 | B3 | 19.6
61 | B10 | 19.1
62 | B6 | 27.4
63 | B7 | 62.9
64 | B9 | 19.2

target: T2, hCD137 (FXa digested); assay: SPR, 1 mM AMP
Experimental: as §2, §3

Row | Binder | binding amount [RU]
65 | B1 | 2.9
66 | B2 | 58.6
67 | B3 | 5.7
68 | B10 | 7.8
69 | B6 | 6.5
70 | B7 | 21.7
71 | B9 | 5.7

target: T1, biotinylated Fc-fused monkey CD137; assay: ELISA, 1 mM ADP, 0.039 ug/mL; set-up: reference not given here
Experimental: as §1

Row | Binder | absorbance ratio
72 | B1 | 0.5
73 | B2 | 26.6
74 | B3 | 1.2
75 | B4 | 1.5
76 | B5 | 0.7
77 | B6 | 0.6
78 | B7 | 1.3
79 | B8 | 1.2
80 | B9 | 1

target: T2, hCD137 (FXa digested); assay: SPR, no small molecule
Experimental: as §2, §3

Row | Binder | binding amount [RU]
81 | B1 | 1.5
82 | B2 | 3.3
83 | B3 | 2.9
84 | B10 | 2.9
85 | B6 | 3.7
86 | B7 | 3.8
87 | B9 | 3.3

target: T1, biotinylated Fc-fused monkey CD137; assay: ELISA, 1 mM ADP, 2.5 ug/mL; set-up: reference not given here
Experimental: as §1

Row | Binder | absorbance ratio
88 | B1 | 5.5
89 | B2 | 56.6
90 | B3 | 14
91 | B4 | 32.4
92 | B5 | 30.2
93 | B6 | 8.1
94 | B7 | 12.7
95 | B8 | 16.8
96 | B9 | 16.7

target: T2, hCD137 (FXa digested); assay: SPR, 100 uM ADP
Experimental: as §2, §3

Row | Binder | binding amount [RU]
97 | B1 | 33
98 | B2 | 112
99 | B3 | 56.6
100 | B10 | 58.7
101 | B6 | 43
102 | B7 | 72.1
103 | B9 | 55.5
